{
  "source": "the supplement of paper PMC10567573",
  "parents": {"B1": {"name": "KCNA4 (parent)", "chain": "YQSGGRLKRPVNVPFDIFTEEVKF"}, "B2": {"name": "OAS1 (parent)", "chain": "LQLGEGVEFDVLPAFDALGQLTGG"}},
  "data": [
    {"variants_of": "B1", "test": "protein stability index of a GFP-peptide fusion (GPS, HEK-293T) (PSI 1-6); higher = more stable", "settings": "c terminus: a fixed tail appended", "values": [
      {"variant": "YQSGGRLKRPVNVPRDIFTEEVKF", "note": "[F15R]", "protein stability index": 2.83},
      {"variant": "YQSGGRLKRPVNVPNDIFTEEVKF", "note": "[F15N]", "protein stability index": 1.88},
      {"variant": "YQSGGRLKRPINVPFDIFTEEVKF", "note": "[V11I]", "protein stability index": 2.3},
      {"variant": "YQSGGRLKRPRNVPFDIFTEEVKF", "note": "[V11R]", "protein stability index": 1.81},
      {"variant": "YQSGGRLKRPANVPFDIFTEEVKF", "note": "[V11A]", "protein stability index": 2.07},
      {"variant": "YQSGGRLKRPFNVPFDIFTEEVKF", "note": "[V11F]", "protein stability index": 3.13},
      {"variant": "YQSGGRLKRPHNVPFDIFTEEVKF", "note": "[V11H]", "protein stability index": 1.69},
      {"variant": "YQSGGRLKRPVNVPFDIFWEEVKF", "note": "[T19W]", "protein stability index": 1.41},
      {"variant": "YQSGGRLKRPVNVPFDIFPEEVKF", "note": "[T19P]", "protein stability index": 1.53},
      {"variant": "YQSGGRLKRPVNVPFDIFKEEVKF", "note": "[T19K]", "protein stability index": 2.66},
      {"variant": "YQSIGRLKRPVNVPFDIFTEEVKF", "note": "[G4I]", "protein stability index": 2.36},
      {"variant": "YQSTGRLKRPVNVPFDIFTEEVKF", "note": "[G4T]", "protein stability index": 2.2},
      {"variant": "YQSPGRLKRPVNVPFDIFTEEVKF", "note": "[G4P]", "protein stability index": 3.26},
      {"variant": "YQSGGRLKRPVNVPFDIFTEKVKF", "note": "[E21K]", "protein stability index": 1.17},
      {"variant": "YQSGGRLKRPVCVPFDIFTEEVKF", "note": "[N12C]", "protein stability index": 1.8},
      {"variant": "YQSGGRLKRPVVVPFDIFTEEVKF", "note": "[N12V]", "protein stability index": 1.54},
      {"variant": "YQSGGRLKRPVDVPFDIFTEEVKF", "note": "[N12D]", "protein stability index": 2.38},
      {"variant": "YQSGGRLKRYVNVPFDIFTEEVKF", "note": "[P10Y]", "protein stability index": 1.93},
      {"variant": "YQSGGRLKRFVNVPFDIFTEEVKF", "note": "[P10F]", "protein stability index": 2.76},
      {"variant": "YQSGGRLKRTVNVPFDIFTEEVKF", "note": "[P10T]", "protein stability index": 1.79},
      {"variant": "YQSGGRLKRQVNVPFDIFTEEVKF", "note": "[P10Q]", "protein stability index": 2.2},
      {"variant": "YQSGGRLKRWVNVPFDIFTEEVKF", "note": "[P10W]", "protein stability index": 1.14},
      {"variant": "YQSGGRLKREVNVPFDIFTEEVKF", "note": "[P10E]", "protein stability index": 1.78},
      {"variant": "YQSGGRLKRNVNVPFDIFTEEVKF", "note": "[P10N]", "protein stability index": 1.94},
      {"variant": "YQSGGRRKRPVNVPFDIFTEEVKF", "note": "[L7R]", "protein stability index": 1.7},
      {"variant": "YQSGGRYKRPVNVPFDIFTEEVKF", "note": "[L7Y]", "protein stability index": 1.86},
      {"variant": "YQSGGRVKRPVNVPFDIFTEEVKF", "note": "[L7V]", "protein stability index": 2.28},
      {"variant": "YQSGGRCKRPVNVPFDIFTEEVKF", "note": "[L7C]", "protein stability index": 1.78},
      {"variant": "YQSGGRDKRPVNVPFDIFTEEVKF", "note": "[L7D]", "protein stability index": 1.95},
      {"variant": "YQSGGRNKRPVNVPFDIFTEEVKF", "note": "[L7N]", "protein stability index": 1.84},
      {"variant": "YQSGGRHKRPVNVPFDIFTEEVKF", "note": "[L7H]", "protein stability index": 1.8},
      {"variant": "YQSGGRGKRPVNVPFDIFTEEVKF", "note": "[L7G]", "protein stability index": 1.84},
      {"variant": "YQSGGRMKRPVNVPFDIFTEEVKF", "note": "[L7M]", "protein stability index": 1.56},
      {"variant": "YQSGGRLKRPVNVPFEIFTEEVKF", "note": "[D16E]", "protein stability index": 2.08},
      {"variant": "YQSGGRLKRPVNVPFCIFTEEVKF", "note": "[D16C]", "protein stability index": 1.1},
      {"variant": "YQSGGRLKRPVNVPFHIFTEEVKF", "note": "[D16H]", "protein stability index": 1.08},
      {"variant": "YQSGGRLKRPVNVPFSIFTEEVKF", "note": "[D16S]", "protein stability index": 1.21},
      {"variant": "YQSGGRLKRPVNVPFNIFTEEVKF", "note": "[D16N]", "protein stability index": 2.03},
      {"variant": "YQSGGYLKRPVNVPFDIFTEEVKF", "note": "[R6Y]", "protein stability index": 2.51},
      {"variant": "YQSGGDLKRPVNVPFDIFTEEVKF", "note": "[R6D]", "protein stability index": 2.23},
      {"variant": "YQSGGNLKRPVNVPFDIFTEEVKF", "note": "[R6N]", "protein stability index": 2.16},
      {"variant": "YQSGGCLKRPVNVPFDIFTEEVKF", "note": "[R6C]", "protein stability index": 1.26},
      {"variant": "YQSGGRLKRPVNVPFDIFTIEVKF", "note": "[E20I]", "protein stability index": 1.47},
      {"variant": "YQSGGRLKRPVNVPFDIFTREVKF", "note": "[E20R]", "protein stability index": 1.31},
      {"variant": "YQSGGRLKRPVNVPFDIFTNEVKF", "note": "[E20N]", "protein stability index": 2.12},
      {"variant": "YQSGGRLKRPVNVPFDIFTEEVKW", "note": "[F24W]", "protein stability index": 1.92},
      {"variant": "YQSGGRLKRPVNVPFDIFTEEVKS", "note": "[F24S]", "protein stability index": 2.79},
      {"variant": "YQSGGRLKRPVNVPFDIFTEEVKN", "note": "[F24N]", "protein stability index": 1.93},
      {"variant": "YQSGGRLKRPVNVPFDIFTEEVKM", "note": "[F24M]", "protein stability index": 1.63},
      {"variant": "YQSGGRLKRPVNVPFDIFTEEVKC", "note": "[F24C]", "protein stability index": 1.93},
      {"variant": "YQTGGRLKRPVNVPFDIFTEEVKF", "note": "[S3T]", "protein stability index": 2.32},
      {"variant": "YQVGGRLKRPVNVPFDIFTEEVKF", "note": "[S3V]", "protein stability index": 1.75},
      {"variant": "YQLGGRLKRPVNVPFDIFTEEVKF", "note": "[S3L]", "protein stability index": 2.13},
      {"variant": "YQWGGRLKRPVNVPFDIFTEEVKF", "note": "[S3W]", "protein stability index": 2.23},
      {"variant": "YQSGGRLNRPVNVPFDIFTEEVKF", "note": "[K8N]", "protein stability index": 2.23},
      {"variant": "YQSGGRLKRPVNVPFDIFTEEVQF", "note": "[K23Q]", "protein stability index": 2.06},
      {"variant": "YQSGGRLKRPVNVPFDIFTEEVYF", "note": "[K23Y]", "protein stability index": 1.52},
      {"variant": "YQSGGRLKRPVNVPFDIFTEEVMF", "note": "[K23M]", "protein stability index": 2.17},
      {"variant": "YQSGGRLKRPVNVPFDIFTEEVCF", "note": "[K23C]", "protein stability index": 2.33},
      {"variant": "YTSGGRLKRPVNVPFDIFTEEVKF", "note": "[Q2T]", "protein stability index": 1.62},
      {"variant": "YSSGGRLKRPVNVPFDIFTEEVKF", "note": "[Q2S]", "protein stability index": 2.58},
      {"variant": "YISGGRLKRPVNVPFDIFTEEVKF", "note": "[Q2I]", "protein stability index": 1.93},
      {"variant": "YPSGGRLKRPVNVPFDIFTEEVKF", "note": "[Q2P]", "protein stability index": 2},
      {"variant": "YQSGGRLKRPVNVPFDIFTEEAKF", "note": "[V22A]", "protein stability index": 1.58},
      {"variant": "YQSGGRLKRPVNVPFDIFTEEPKF", "note": "[V22P]", "protein stability index": 1.54},
      {"variant": "YQSGGRLKRPVNVPFDIFTEEEKF", "note": "[V22E]", "protein stability index": 2.77},
      {"variant": "YQSGGRLKRPVNVPFDIFTEERKF", "note": "[V22R]", "protein stability index": 1.48},
      {"variant": "YQSGGRLKWPVNVPFDIFTEEVKF", "note": "[R9W]", "protein stability index": 3.37},
      {"variant": "YQSGGRLKFPVNVPFDIFTEEVKF", "note": "[R9F]", "protein stability index": 1.58},
      {"variant": "YQSGGRLKYPVNVPFDIFTEEVKF", "note": "[R9Y]", "protein stability index": 2.38},
      {"variant": "YQSGGRLKNPVNVPFDIFTEEVKF", "note": "[R9N]", "protein stability index": 2.07},
      {"variant": "YQSGGRLKKPVNVPFDIFTEEVKF", "note": "[R9K]", "protein stability index": 1.83},
      {"variant": "YQSGGRLKQPVNVPFDIFTEEVKF", "note": "[R9Q]", "protein stability index": 2.34}
    ]},
    {"variants_of": "B2", "test": "protein stability index of a GFP-peptide fusion (GPS, HEK-293T) (PSI 1-6); higher = more stable", "settings": "c terminus: a fixed tail appended", "values": [
      {"variant": "LQLFEGVEFDVLPAFDALGQLTGG", "note": "[G4F]", "protein stability index": 1.17},
      {"variant": "LQLKEGVEFDVLPAFDALGQLTGG", "note": "[G4K]", "protein stability index": 2.8},
      {"variant": "LQLGEGVEFDVLPAFRALGQLTGG", "note": "[D16R]", "protein stability index": 1.31},
      {"variant": "LQEGEGVEFDVLPAFDALGQLTGG", "note": "[L3E]", "protein stability index": 4.56},
      {"variant": "LQLGEGVEFDVLPAFDALGRLTGG", "note": "[Q20R]", "protein stability index": 1.51},
      {"variant": "LQLGEGVEFDVLPAFDALGLLTGG", "note": "[Q20L]", "protein stability index": 1.02},
      {"variant": "LQLGEGVEFDVLPAFDALGQLTGF", "note": "[G24F]", "protein stability index": 1.17},
      {"variant": "LQLGEGVEFDVLPAFDALGQLTGD", "note": "[G24D]", "protein stability index": 1.94},
      {"variant": "LQLGEGVEFDVLRAFDALGQLTGG", "note": "[P13R]", "protein stability index": 1.29},
      {"variant": "LQLGEGVIFDVLPAFDALGQLTGG", "note": "[E8I]", "protein stability index": 2.37},
      {"variant": "LQLGEGVEFDVLPAFDALQQLTGG", "note": "[G19Q]", "protein stability index": 1.61},
      {"variant": "LQLGEGVEFDVLPAFDALLQLTGG", "note": "[G19L]", "protein stability index": 2.67},
      {"variant": "LQLGEGVEFDVLPAEDALGQLTGG", "note": "[F15E]", "protein stability index": 3.57},
      {"variant": "LQLGEGVEFDVLPAIDALGQLTGG", "note": "[F15I]", "protein stability index": 2.27},
      {"variant": "LQLGEGVEFDVLPAADALGQLTGG", "note": "[F15A]", "protein stability index": 2.92},
      {"variant": "LQLGEGVEFDVLPAHDALGQLTGG", "note": "[F15H]", "protein stability index": 3.1},
      {"variant": "LQLGEGVEFDVLPAFDALGQHTGG", "note": "[L21H]", "protein stability index": 1.68},
      {"variant": "LQLGEGVEFDVLPAFDALGQKTGG", "note": "[L21K]", "protein stability index": 3.12},
      {"variant": "LQLGEGIEFDVLPAFDALGQLTGG", "note": "[V7I]", "protein stability index": 2.84},
      {"variant": "LQLGEGMEFDVLPAFDALGQLTGG", "note": "[V7M]", "protein stability index": 1.52},
      {"variant": "LQLGQGVEFDVLPAFDALGQLTGG", "note": "[E5Q]", "protein stability index": 1.64}
    ]}
  ]
}
